Key:
[1] = biological target: T1, human kallikrein 14 (hK14) (human, UniProt Q9P0G3 25-251, limits assumed); assay: residual hK14 activity against [I0]/[E0]
T1 construct: range counted on GenBank AAK48524 (printed), which may differ from the UniProt numbering; also called recombinant hK14
T1 sequence (looked up): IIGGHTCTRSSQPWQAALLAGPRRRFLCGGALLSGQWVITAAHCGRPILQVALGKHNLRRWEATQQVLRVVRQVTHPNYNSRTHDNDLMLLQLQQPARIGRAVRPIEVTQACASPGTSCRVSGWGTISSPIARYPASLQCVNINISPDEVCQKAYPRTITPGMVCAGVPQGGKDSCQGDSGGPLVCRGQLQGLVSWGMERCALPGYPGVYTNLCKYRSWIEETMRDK
Experimental: SI values of rAAT, rACT, and their variants were determined with hK14 incubating the protease with varying concentrations of inhibitor. After an incubation of 4 hours at 37° C. in reaction buffer (50 mM Tris, pH 7.5, 150 mM NaCl, 0.05% Triton X-100, 0.01% BSA), the residual activity was detected by the addition of fluorescent substrate (Boc-Val-Pro-Arg-AMC). Fluorescence was measured with excitation at 340 nm (±15) and emission at 485 nm (±10) in black 96 well plates using a microplate fluorescence reader FLₓ800 (Bio-Tek Instruments, Inc.). The SI value corresponds to the abscissa intercept of the linear regression analysis of fractional velocity (velocity of inhibited enzyme reaction (vi)/velocity of uninhibited enzyme reaction (v₀)) vs. the molar ratio of the inhibitor to enzyme ([I₀]/[E₀]).

[2] = biological target: T1, human kallikrein 14 (hK14); assay: progress curve; * [I0]/[E0] < 5 * SI
Experimental: The association rate constants for interactions of hK14, with different inhibitors were determined under pseudo-first order conditions using the progress curve method (Morrison and Walsh, 1988). Under these conditions, a fixed amount of enzyme (2 nM) was mixed with different concentrations of inhibitor (0-80 nM) and an excess of substrate (20 μM). Reactions were performed in reaction buffer (50 mM Tris pH 7.5, 150 mM NaCl, 0.05% Triton X-100, 0.01% BSA) at 37° C. for 45 min and the rate of product formation was measured using a FLₓ800 fluorescence 96-well microplate reader (Biotek, USA) Inhibition is considered to be irreversible over the course of reaction and the progression of enzyme activity is expressed as product formation (P), beginning at a rate (vz) and is inhibited over time (t) at a first-order rate (kobs), where the rate constant is only dependent on the inhibitor concentration.

[3] = biological target: human chymotrypsin (Chtr) (human, UniProt P17538 19-263); assay: cell-based or functional assay
human chymotrypsin (Chtr), sequence (P17538 19-263): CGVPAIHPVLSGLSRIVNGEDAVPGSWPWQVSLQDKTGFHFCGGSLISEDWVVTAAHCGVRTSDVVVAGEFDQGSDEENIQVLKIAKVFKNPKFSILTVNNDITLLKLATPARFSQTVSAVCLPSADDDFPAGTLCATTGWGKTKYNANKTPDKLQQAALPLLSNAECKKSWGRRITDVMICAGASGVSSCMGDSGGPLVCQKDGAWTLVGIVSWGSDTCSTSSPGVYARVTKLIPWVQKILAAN

[4] = biological target: T1, human kallikrein 14 (hK14); assay: cell-based or functional assay
[5] = biological target: urokinase plasminogen activator (uPA) (UniProt P00749 21-431, limits assumed); assay: cell-based or functional assay
thrombin = assay: cell-based or functional assay
[6] = biological target: T2, human neutrophil elastase (HNE) (human, UniProt P08246 30-247, limits assumed); assay: cell-based or functional assay
T2 sequence (looked up): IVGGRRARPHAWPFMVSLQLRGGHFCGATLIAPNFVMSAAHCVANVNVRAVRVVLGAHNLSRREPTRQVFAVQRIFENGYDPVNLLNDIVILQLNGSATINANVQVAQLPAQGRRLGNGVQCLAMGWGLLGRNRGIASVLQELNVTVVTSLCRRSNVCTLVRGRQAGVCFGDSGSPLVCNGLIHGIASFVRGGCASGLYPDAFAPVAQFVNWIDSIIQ

[7] = biological target: human plasma kallikrein (PK) (human, UniProt P03952 20-638); assay: cell-based or functional assay
human plasma kallikrein (PK), sequence (P03952 20-638 limits assumed): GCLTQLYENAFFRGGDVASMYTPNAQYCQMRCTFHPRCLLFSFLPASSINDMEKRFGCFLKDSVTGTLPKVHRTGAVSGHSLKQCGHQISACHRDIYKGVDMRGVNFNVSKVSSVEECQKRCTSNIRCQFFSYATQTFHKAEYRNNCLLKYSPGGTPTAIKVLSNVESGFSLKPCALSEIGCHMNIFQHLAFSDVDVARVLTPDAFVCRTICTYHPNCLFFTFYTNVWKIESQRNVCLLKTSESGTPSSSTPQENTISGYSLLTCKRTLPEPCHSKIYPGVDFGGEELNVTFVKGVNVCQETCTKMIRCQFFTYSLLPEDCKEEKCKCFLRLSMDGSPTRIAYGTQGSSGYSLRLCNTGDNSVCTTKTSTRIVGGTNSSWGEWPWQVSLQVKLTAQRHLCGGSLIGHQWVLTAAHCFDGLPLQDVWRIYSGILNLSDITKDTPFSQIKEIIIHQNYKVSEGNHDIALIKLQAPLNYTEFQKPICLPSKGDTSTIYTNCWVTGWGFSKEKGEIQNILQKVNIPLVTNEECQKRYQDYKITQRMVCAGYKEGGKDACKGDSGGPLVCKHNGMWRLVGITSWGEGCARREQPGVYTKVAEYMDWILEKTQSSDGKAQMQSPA

Row | Binder | SI (stoichiometry of inhibition) [1] | kon [2] | % Inhibition [3] | % Inhibition [4] | % Inhibition [5] | % Inhibition (thrombin) | % Inhibition [6] | % Inhibition [7]
1 | AATC11g (other) MRGSHHHHHHGSDDPQGDAAQKTDTSHHDQDHPTFNKITPNLAEFAFSLYRQLAHQSNSTNIFFSPVSIATAFAMLSLGTKADTHDEILEGLNFNLTEIPEAQIHEGFQELLRTLNQPDSQLQLTTGNGLFLSEGLKLVDKFLEDVKKLYHSEAFTVNFGDTEEAKKQINDYVEKGTQGKIVDLVKELDRDTVFALVNYIFFKGKWERPFEVKDTEEEDFHVDQATTVKVPMMKRLGMFNIQHCKKLSSWVLLMKYLGNATAIFFLPDEGKLQHLENELTHDIITKFLENEDRRSASLHLPKLSITGTYDLKSVLGQLGITKVFSNGADLSGVTEEAPLKLSKAVHKAVLTIDEKGTEAAGAMFLEAIGRQTNPEVKFNKPFVFLMIEQNTKSPLFMGKVVNPTQK | 9 | 42000 M⁻¹ s⁻¹ |  |  |  |  |  | 
2 | AATC11 (other, human, mature) HHHHHHEDPQGDAAQKTDTSHHDQDHPTFNKITPNLAEFAFSLYRQLAHQSNSTNIFFSPVSIATAFAMLSLGTKADTHDEILEGLNFNLTEIPEAQIHEGFQELLRTLNQPDSQLQLTTGNGLFLSEGLKLVDKFLEDVKKLYHSEAFTVNFGDTEEAKKQINDYVEKGTQGKIVDLVKELDRDTVFALVNYIFFKGKWERPFEVKDTEEEDFHVDQVTTVKVPMMKRLGMFNIQHCKKLSSWVLLMKYLGNATAIFFLPDEGKLQHLENELTHDIITKFLENEDRRSASLHLPKLSITGTYDLKSVLGQLGITKVFSNGADLSGVTEEAPLKLSKAVHKAVLTIDEKGTEAAGAMFLEAIPRQTNPEVKFNKPFVFLMIEQNTKSPLFMGKVVNPTQK | 2.8 |  | 18% | 100% | 0% | 100% | 0% | 8%
3 | AATE5 (other, human, mature) HHHHHHEDPQGDAAQKTDTSHHDQDHPTFNKITPNLAEFAFSLYRQLAHQSNSTNIFFSPVSIATAFAMLSLGTKADTHDEILEGLNFNLTEIPEAQIHEGFQELLRTLNQPDSQLQLTTGNGLFLSEGLKLVDKFLEDVKKLYHSEAFTVNFGDTEEAKKQINDYVEKGTQGKIVDLVKELDRDTVFALVNYIFFKGKWERPFEVKDTEEEDFHVDQVTTVKVPMMKRLGMFNIQHCKKLSSWVLLMKYLGNATAIFFLPDEGKLQHLENELTHDIITKFLENEDRRSASLHLPKLSITGTYDLKSVLGQLGITKVFSNGADLSGVTEEAPLKLSKAVHKAVLTIDEKGTEAAGAMFLEANQRSSPPEVKFNKPFVFLMIEQNTKSPLFMGKVVNPTQK | 10 |  |  |  |  |  |  | 
4 | AATG1 (other, human, mature) HHHHHHEDPQGDAAQKTDTSHHDQDHPTFNKITPNLAEFAFSLYRQLAHQSNSTNIFFSPVSIATAFAMLSLGTKADTHDEILEGLNFNLTEIPEAQIHEGFQELLRTLNQPDSQLQLTTGNGLFLSEGLKLVDKFLEDVKKLYHSEAFTVNFGDTEEAKKQINDYVEKGTQGKIVDLVKELDRDTVFALVNYIFFKGKWERPFEVKDTEEEDFHVDQVTTVKVPMMKRLGMFNIQHCKKLSSWVLLMKYLGNATAIFFLPDEGKLQHLENELTHDIITKFLENEDRRSASLHLPKLSITGTYDLKSVLGQLGITKVFSNGADLSGVTEEAPLKLSKAVHKAVLTIDEKGTEAAGAMFLEGSLRSIPPEVKFNKPFVFLMIEQNTKSPLFMGKVVNPTQK | 3.6 |  | 27% | 100% | 17% | 51% | 0% | 100%
5 | AATF3 (other, human, mature) HHHHHHEDPQGDAAQKTDTSHHDQDHPTFNKITPNLAEFAFSLYRQLAHQSNSTNIFFSPVSIATAFAMLSLGTKADTHDEILEGLNFNLTEIPEAQIHEGFQELLRTLNQPDSQLQLTTGNGLFLSEGLKLVDKFLEDVKKLYHSEAFTVNFGDTEEAKKQINDYVEKGTQGKIVDLVKELDRDTVFALVNYIFFKGKWERPFEVKDTEEEDFHVDQVTTVKVPMMKRLGMFNIQHCKKLSSWVLLMKYLGNATAIFFLPDEGKLQHLENELTHDIITKFLENEDRRSASLHLPKLSITGTYDLKSVLGQLGITKVFSNGADLSGVTEEAPLKLSKAVHKAVLTIDEKGTEAAGAMFLEAPDRHMPPEVKFNKPFVFLMIEQNTKSPLFMGKVVNPTQK | 11.7 |  |  |  |  |  |  | 
6 | AATG1g (other, human, mature) HHHHHHEDPQGDAAQKTDTSHHDQDHPTFNKITPNLAEFAFSLYRQLAHQSNSTNIFFSPVSIATAFAMLSLGTKADTHDEILEGLNFNLTEIPEAQIHEGFQELLRTLNQPDSQLQLTTGNGLFLSEGLKLVDKFLEDVKKLYHSEAFTVNFGDTEEAKKQINDYVEKGTQGKIVDLVKELDRDTVFALVNYIFFKGKWERPFEVKDTEEEDFHVDQVTTVKVPMMKRLGMFNIQHCKKLSSWVLLMKYLGNATAIFFLPDEGKLQHLENELTHDIITKFLENEDRRSASLHLPKLSITGTYDLKSVLGQLGITKVFSNGADLSGVTEEAPLKLSKAVHKAVLTIDEKGTEAAGAMFLEGSLRGIPPEVKFNKPFVFLMIEQNTKSPLFMGKVVNPTQK | 2.3 |  | 17% | 100% | 0% | 0% | 0% | 100%
7 | ACTC11 (other, also called rACTC11) MRGSHHHHHHSRHPNSPLDEENLTQENQDRGTHVDLGLASANVDFAFSLYKQLVLKAPDKNVIFSPLSISTALAFLSLGAHNTTLTEILKGLKFNLTETSEAEIHQSFQHLLRTLNQSSDELQLSMGNAMFVKEQLSLLDRFTEDAKRLYGSEAFATDFQDSAAAKKLINDYVKNGTRGKITDLIKDLDSQTMMVLVNYIFFKAKWEMPFDPQDTHQSRFYLSKKKWVMVPMMSLHHLTIPYFRDEELSCTVVELKYTGNASALFILPDQDKMEEVEAMLLPETLKRWRDSLEFREIGELYLPKFSISRDYNLNDILLQLGIEEAFTSKADLSGITGARNLAVSQVVHKAVLDVFEEGTEASAATAVKITLRQTNVETRTIVRFNRPFLMIIVPTDTQNIFFMSKVTNPKQA | 4.8 | 65000 M⁻¹ s⁻¹ | 84% | 100% | 0% | 0% | 0% | 0%
8 | ACTG1v (other) MRGSHHHHHHSRHPNSPLDEENLTQENQDRGTHVDLGLASANVDFAFSLYKQLVLKAPDKNVIFSPLSISTALAFLSLGAHNTTLTEILKGLKFNLTETSEAEIHQSFQHLLRTLNQSSDELQLSMGNAMFVKEQLSLLDRFTEDAKRLYGSEAFATDFQDSAAAKKLINDYVKNGTRGKITDLIKDLDSQTMMVLVNYIFFKAKWEMPFDPQDTHQSRFYLSKKKWVMVPMMSLHHLTIPYFRDEELSCTVVELKYTGNASALFILPDQDKMEEVEAMLLPETLKRWRDSLEFREIGELYLPKFSISRDYNLNDILLQLGIEEAFTSKADLSGITGARNLAVSQVVHKAVLDVFEEGTEASAATAVVGSLRSALVETRTIVRFNRPFLMIIVPTDTQNIFFMSKVTNPKQA | 11.7 | 22000 M⁻¹ s⁻¹ |  |  |  |  |  | 
